Target: the molecule itself
Experiment: analytical ultracentrifugation and chemical cross-linking

B1: refolded NspA (recombinant mature NspA of Neisseria meningitidis strain H44/76, without the 19 amino acid signal peptide) (other)
chain: EGASGFYVQADAAHAKASSSLGSAKGFSPRISAGYRINDLRFAVDYTRYKNYKAPSTDFKLYSIGASAIYDFDTQSPVKPYLGARLSLNRASVDLGGSDSFSQTSIGLGVLTGVSYAVTPNVDLDAGYRYNYIGKVNTVKNVRSGELSAGVRVKF
B1: no binding.
